Measurements as given in patent US20240116985A1 (published 2024).
Starred links: 1 amine or outer side, 2 acyl side, 3 side chain; linkers in the order of their positions; H or OH if unused. Positions of bridges follow the written chain, without caps; N, C: chain ends. Non-standard residues stand in square brackets, D forms with d. Primed or numbered codes have the meaning given here. *: point of attachment. PyrS2″ = (S)-3-amino-1-((pent-4-en-1-yloxy)carbonyl)pyrrolidine-3-carboxylic acid (stapling residue), C=CCCCOC(=O)N1CC[C@@](N[*:1])(C(=O)[*:2])C1; B5(16) = 2-amino-2-(pent-4-en-1-yl)hept-6-enoic acid = 2,2-bis(4-pentenyl)glycine (stitching residue), C=CCCCC(CCCC=C)(N[*:1])C(=O)[*:2]; B5(5) = 2,2-bis(4-pentenyl)glycine, 2-amino-2-(pent-4-en-1-yl)hept-6-enoic acid (stitching residue), C=CCCCC(CCCC=C)(N[*:1])C(=O)[*:2]; PyrS2 = (S)-3-amino-1-((pent-4-en-1-yloxy)carbonyl)pyrrolidine-3-carboxylic acid, C=CCCCOC(=O)N1CC[C@@](N[*:1])(C(=O)[*:2])C1; MePpzAsn = (S)-2-amino-4-(4-methylpiperazin-1-yl)-4-oxobutanoic acid, CN1CCN(C(=O)C[C@H](N[*:1])C(=O)[*:2])CC1; B5(3) = 2,2-bis(4-pentenyl)glycine (stitching residue), C=CCCCC(CCCC=C)(N[*:1])C(=O)[*:2]; Phe(3-CF3) = N[C@@H](Cc1cccc(C(F)(F)F)c1)C(=O)O; Phe(3-COOH) = N[C@@H](Cc1cccc(C(=O)O)c1)C(=O)O; 2F3MeF = Cc1cccc(C[C@H](N[*:1])C(=O)[*:2])c1F; Bta = N[C@@H](Cc1csc2ccccc12)C(=O)O; αAllylPro = C=CC[C@@]1(C(=O)O)CCCN1; tBuAla = CC(C)(C)C[C@H](N)C(=O)O; iPr = CC(C)*

Experiments:
[1] = target: T1, full-length beta-Catenin (Uniprot ID P35222) (Homo sapiens (Human), UniProt P35222 2-781); test: fluorescence polarization competition; 10 nM full-length beta-catenin, 10 nM 5FAM-TCF4(10-53) probe
T1 construct: The FP assay uses 10 nM 'full-length beta-Catenin (Uniprot ID P35222)'; also called bCat; B-Catenin
T1 sequence: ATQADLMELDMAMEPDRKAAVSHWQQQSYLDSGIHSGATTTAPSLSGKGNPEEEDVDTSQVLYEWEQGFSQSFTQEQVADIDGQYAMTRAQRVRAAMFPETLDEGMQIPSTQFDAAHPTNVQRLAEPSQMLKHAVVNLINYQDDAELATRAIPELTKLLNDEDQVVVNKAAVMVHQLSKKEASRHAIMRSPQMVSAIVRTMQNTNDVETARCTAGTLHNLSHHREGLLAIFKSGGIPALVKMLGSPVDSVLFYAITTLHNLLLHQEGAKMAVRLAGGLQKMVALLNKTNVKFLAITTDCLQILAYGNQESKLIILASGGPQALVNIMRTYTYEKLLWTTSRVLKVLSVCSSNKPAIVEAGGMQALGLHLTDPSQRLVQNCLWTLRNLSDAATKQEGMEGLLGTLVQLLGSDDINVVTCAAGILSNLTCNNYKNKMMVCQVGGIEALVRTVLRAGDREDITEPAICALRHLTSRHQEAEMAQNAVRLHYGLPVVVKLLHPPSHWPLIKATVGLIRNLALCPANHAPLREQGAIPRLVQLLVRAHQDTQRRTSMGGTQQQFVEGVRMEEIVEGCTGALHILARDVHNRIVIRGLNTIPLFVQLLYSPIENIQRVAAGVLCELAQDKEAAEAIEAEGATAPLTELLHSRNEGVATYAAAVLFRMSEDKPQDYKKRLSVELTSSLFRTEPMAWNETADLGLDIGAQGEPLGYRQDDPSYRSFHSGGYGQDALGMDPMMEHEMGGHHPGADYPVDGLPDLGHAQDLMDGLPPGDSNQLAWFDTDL
Description: The plate was incubated protected from light for 60 minutes at 20° C. prior to read. Reads were performed on a CLARIOstar plate reader (BMG Labtech) in duplicate, and data were fitted to a 1:1 binding model with hill slope using an in-house script. All provided concentrations are final concentrations.

[2] = target: B-cat-Halo (beta-catenin HaloTag fusion expressed in HEK293 cells) (UniProt P35222 1-781); test: NanoBRET Abs IC50 in HEK293 cells; Bcat-Halo / TCF4-Luc engagement, competitor TCF4-Luc
B-cat-Halo = target: T2, B-cat-Halo (UniProt P35222 1-781); test: cell-based or functional assay
T2 sequence (looked up): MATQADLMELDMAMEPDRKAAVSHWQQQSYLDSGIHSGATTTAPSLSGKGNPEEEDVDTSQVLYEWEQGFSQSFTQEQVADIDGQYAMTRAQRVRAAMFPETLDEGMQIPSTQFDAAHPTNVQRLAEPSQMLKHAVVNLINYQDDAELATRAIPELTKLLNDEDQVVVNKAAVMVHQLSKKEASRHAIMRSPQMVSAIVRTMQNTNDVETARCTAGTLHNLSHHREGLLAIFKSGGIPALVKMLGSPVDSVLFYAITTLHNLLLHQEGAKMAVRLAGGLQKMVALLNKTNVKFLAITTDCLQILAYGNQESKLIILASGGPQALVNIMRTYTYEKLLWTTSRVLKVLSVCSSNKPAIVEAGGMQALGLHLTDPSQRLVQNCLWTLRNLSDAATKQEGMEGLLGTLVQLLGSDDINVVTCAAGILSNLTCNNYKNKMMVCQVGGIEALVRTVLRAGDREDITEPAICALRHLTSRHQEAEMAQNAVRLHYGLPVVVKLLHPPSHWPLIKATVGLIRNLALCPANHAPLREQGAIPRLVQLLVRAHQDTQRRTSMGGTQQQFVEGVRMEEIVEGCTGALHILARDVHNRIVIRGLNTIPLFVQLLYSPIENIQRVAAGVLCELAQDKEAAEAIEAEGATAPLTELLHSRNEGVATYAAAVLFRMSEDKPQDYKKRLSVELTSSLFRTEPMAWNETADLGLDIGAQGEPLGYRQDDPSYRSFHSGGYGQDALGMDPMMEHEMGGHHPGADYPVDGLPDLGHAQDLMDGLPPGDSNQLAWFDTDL

[3] = target: T3, beta-catenin (endogenous, DLD1 TCF/LEF luciferase reporter cells) (UniProt P35222 1-781); test: cell-based or functional assay
T3 sequence (looked up): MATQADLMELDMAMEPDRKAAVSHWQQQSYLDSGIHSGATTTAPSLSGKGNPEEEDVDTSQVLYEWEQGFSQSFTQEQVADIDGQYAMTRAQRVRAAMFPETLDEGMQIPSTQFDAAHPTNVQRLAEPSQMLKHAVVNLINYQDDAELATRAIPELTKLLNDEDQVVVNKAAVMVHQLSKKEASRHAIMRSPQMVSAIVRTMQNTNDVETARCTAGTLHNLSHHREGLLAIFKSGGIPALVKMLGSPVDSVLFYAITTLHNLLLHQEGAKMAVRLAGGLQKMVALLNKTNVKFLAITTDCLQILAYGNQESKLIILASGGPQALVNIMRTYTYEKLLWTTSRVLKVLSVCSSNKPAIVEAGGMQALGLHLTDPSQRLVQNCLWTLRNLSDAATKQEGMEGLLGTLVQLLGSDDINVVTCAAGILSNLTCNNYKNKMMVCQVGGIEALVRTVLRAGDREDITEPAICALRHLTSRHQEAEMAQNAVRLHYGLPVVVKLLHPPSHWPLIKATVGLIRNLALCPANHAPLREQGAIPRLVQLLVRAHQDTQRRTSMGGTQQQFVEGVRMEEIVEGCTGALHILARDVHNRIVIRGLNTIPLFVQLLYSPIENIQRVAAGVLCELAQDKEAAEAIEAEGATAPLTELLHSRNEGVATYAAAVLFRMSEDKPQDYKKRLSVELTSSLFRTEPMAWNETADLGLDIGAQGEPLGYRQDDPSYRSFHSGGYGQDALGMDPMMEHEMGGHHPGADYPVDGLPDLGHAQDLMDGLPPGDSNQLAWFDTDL

B1: I-1647 (peptide)
peptide: Ac-[αAllylPro]NY[B5(16)]DQK(iPr)AFL[PyrS2]F[Bta]Q-NH2
modifications: staple 1-4, 4-11
notes: Stapled peptide; also called Ac-PL3-Asn-Tyr-B5-Asp-Gln-iPrLys-Ala-Phe-Leu-PyrS2-Phe-BztA-Gln-NH2
IC50 [1]: 2.35 µM

Ac-[αAllylPro]D[tBuAla][B5(5)]DTAA[Phe(3-CF3)]T[PyrS2″]F[Bta]S-NH2 (staple 1-4, 4-11) [I-1268: Ac-PL3-Asp-Npg-B5-Asp-Thr-Ala-Ala-3F3MeF-Thr-PyrS2-Phe-BztA-Ser-NH2]
IC50 [2]: 28.4 µM

Ac-[αAllylPro]D[tBuAla][B5(3)]D[Phe(3-COOH)]AAFL[PyrS2″][2F3MeF][Bta][MePpzAsn]-NH2 (staple 1-4, 4-11) [I-1612]
NanoBRET Abs IC50 (B-cat-Halo): 5.3 µM
DLD1 4% Abs IC50 [3]: 4 µM
